Experiment [1] concerns the target galectin-10 (Gal10), species and tag not stated for the assay (UniProt Q05315). Briefly: competition ELISA; negative control; competitor biotinylated g7B07 hFab (detected). In general terms: An ELISA detects its analyte on a solid surface through an enzyme-linked reagent.
For experiment [2] the target is unchanged. Description: competition ELISA; negative control, set as 0% competition; competitor biotinylated g7B07 hFab.

This note sets out measurements from patent publication US20250059284A1.

galectin-10 (Gal10), species and tag not stated for the assay, sequence (Q05315 2-142 limits assumed): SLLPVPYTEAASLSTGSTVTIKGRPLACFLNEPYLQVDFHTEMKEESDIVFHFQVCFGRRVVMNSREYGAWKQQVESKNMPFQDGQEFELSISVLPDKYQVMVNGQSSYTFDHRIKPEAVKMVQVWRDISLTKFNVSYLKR

As to Motavizumab in human Fab backbone, the Mean OD value in experiment [1] came to 2.51 OD. For the same substance, the % Competition against g7B07-Biot in experiment [2] is 0%.
